US20230272073A1

Columns and labels:
[1] = biological target: membrane-bound IGHV3-21/IGLV3-21^R110 BCR on murine TKO cells (human); experiment: flow cytometry dot plot, cell mix A (1:1 IGHV3-21/IGLV3-21^R110 BCR TKO cells and BCR-negative TKO cells), 2 µg/ml anti-human IgM-PE
[2] = biological target: IGHV3-21/IGLV3-21^G110 BCR on murine TKO cells (human) (UniProt P01871); experiment: flow cytometry dot plot, cell mix B (1:1 IGHV3-21/IGLV3-21^G110 BCR TKO cells and BCR-negative TKO cells), 2 µg/ml anti-human IgM-PE
Chain of IGHV3-21/IGLV3-21^G110 BCR on murine TKO cells (human) (P01871 other isoform, or with tags, fused parts or gaps, chain 1 of 2): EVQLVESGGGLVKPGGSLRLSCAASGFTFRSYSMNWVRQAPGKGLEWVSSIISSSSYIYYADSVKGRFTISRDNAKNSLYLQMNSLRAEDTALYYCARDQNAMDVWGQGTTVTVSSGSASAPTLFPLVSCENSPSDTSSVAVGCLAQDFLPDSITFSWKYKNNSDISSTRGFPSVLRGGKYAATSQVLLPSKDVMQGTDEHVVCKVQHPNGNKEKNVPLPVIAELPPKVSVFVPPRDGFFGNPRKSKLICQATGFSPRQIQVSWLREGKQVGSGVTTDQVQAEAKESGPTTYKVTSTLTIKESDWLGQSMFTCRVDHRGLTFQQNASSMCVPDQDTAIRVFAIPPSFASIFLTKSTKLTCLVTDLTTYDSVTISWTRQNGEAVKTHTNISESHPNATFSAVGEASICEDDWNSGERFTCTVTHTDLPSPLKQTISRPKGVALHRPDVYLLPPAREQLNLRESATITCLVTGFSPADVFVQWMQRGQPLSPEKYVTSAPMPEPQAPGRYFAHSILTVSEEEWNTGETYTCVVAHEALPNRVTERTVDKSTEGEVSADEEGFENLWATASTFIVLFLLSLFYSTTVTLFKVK
Chain of IGHV3-21/IGLV3-21^G110 BCR on murine TKO cells (human) (light, as listed by the source, chain 2 of 2): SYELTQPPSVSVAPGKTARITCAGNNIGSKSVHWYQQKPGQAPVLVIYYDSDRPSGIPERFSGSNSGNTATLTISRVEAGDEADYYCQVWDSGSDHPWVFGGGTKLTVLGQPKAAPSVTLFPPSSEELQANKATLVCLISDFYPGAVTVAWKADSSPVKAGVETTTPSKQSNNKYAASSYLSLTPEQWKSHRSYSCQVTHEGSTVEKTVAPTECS

Chain of membrane-bound IGHV3-21/IGLV3-21^R110 BCR on murine TKO cells (human) (P01871 other isoform, or with tags, fused parts or gaps, chain 1 of 2): as the sequence (P01871 other isoform, or with tags, fused parts or gaps, chain 1 of 2) above
Chain of membrane-bound IGHV3-21/IGLV3-21^R110 BCR on murine TKO cells (human) (light, as listed by the source, chain 2 of 2): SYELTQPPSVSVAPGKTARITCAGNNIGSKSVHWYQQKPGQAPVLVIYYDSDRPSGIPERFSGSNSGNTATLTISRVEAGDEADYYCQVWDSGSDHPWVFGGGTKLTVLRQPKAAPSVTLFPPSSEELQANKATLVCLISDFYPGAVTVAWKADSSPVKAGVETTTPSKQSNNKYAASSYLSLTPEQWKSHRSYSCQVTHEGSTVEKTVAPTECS

share of gated cells (P1) in quadrant Q1 (anti-IgM-PE positive, mAb01-01-APC negative) [1]: 2.78%
share of gated cells (P1) in quadrant Q2 (anti-IgM-PE positive, mAb01-01-APC positive) [1]: 45.5%
share of gated cells (P1) in quadrant Q1 (anti-IgM-PE positive, mAb01-01-APC negative) [2]: 42.2%
share of gated cells (P1) in quadrant Q2 (anti-IgM-PE positive, mAb01-01-APC positive) [2]: 1.11%
Substance: Anti-human IgM-PE, Clone: MHM-88, BioLegend Cat-No.: 314508 (antibody)
